Experimental findings from publication PMC3430610, “Brassica napus PHR1 Gene Encoding a MYB-Like Protein Functions in Response to Phosphate Starvation” are described below.

The data set deals with MBP-BnPHR1 (Brassica napus, UniProt W5QL02 1-417). In words: EMSA; EMSA: 750 mM KCl, 0.5 mM DTT, 0.5 mM EDTA, 50 mM Tris pH 7.4 (so in the source), room temperature, 20 min; native PAGE, SYBR Green then SYPRO Ruby stain. The following applies: protein: recombinant; tags: N-terminal MBP (pMAL-c2); chain copies: 2; label: none (SYBR Green post-stain); 5' overhang 4 nt on both strands (AATT and CCGG), 41 bp duplex.
MBP-BnPHR1, sequence (W5QL02 entry or part of it): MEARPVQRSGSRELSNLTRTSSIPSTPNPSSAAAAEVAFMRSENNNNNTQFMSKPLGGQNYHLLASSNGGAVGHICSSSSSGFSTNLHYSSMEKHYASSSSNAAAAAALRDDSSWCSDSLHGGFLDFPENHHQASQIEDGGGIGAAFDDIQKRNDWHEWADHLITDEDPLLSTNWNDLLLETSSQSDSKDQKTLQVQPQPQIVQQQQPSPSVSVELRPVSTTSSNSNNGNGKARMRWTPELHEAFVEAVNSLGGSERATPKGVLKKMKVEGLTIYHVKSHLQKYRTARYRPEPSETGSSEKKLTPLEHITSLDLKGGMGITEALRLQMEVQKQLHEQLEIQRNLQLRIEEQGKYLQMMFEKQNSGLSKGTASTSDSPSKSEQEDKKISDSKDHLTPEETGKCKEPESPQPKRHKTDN

B1: BnPT2 promoter probe (BnPT2p1/p2) (dsDNA)
DNA 1: AATTGGAGGGGAATATACCGAAACATTGTTGTATATTCATGTAAG
DNA 2: CCGGCTTACATGAATATACAACAATGTTTCGGTATATTCCCCTCC
In the case of B1, the binding result is on record as “binds”.
